Results as given in the supplement of paper PMC10126150.
± gives the standard deviation of the averaged measurements.

The sequences below were run on ATP (assay: switch fluorescence ratio, 500 uM ATP over buffer (Cy3 cluster intensity, sum of 5 cycles each) (fold (ratio)); higher = stronger signal-on switching upon ATP binding; sequences stand for … in TCGTCGGCAGCGTCAGATGTGTATAAGAGACAGTTTTTTTTTTTTTTTTTTTTTTTTT…TC). Details: aptamer strand: ATP DNA aptamer (quencher-CACCTGGGGGAGTATTGCGGAGGAAGG + anchor), 100 nM annealed; ATP concentration: 500 uM.
Procedure, shortened: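 Imaging in selection buffer was followed by imaging after 15 min with 500 uM ATP at 22 °C, for Cy3-labelled switching-strand clusters annealed to 100 nM quencher-labelled ATP aptamer on a modified Illumina MiSeq flow-cell. Five of these buffer/ATP cycles ran, separated by NaOH stripping and re-annealing. The fluorescence ratio per cluster is summed target-cycle over summed buffer-cycle Cy3 intensity, averaged per switch-domain sequence; clusters outside 100-1000 RFU were removed.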
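Note: ATP exposure 15 min at 22 °C before imaging.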

Sequence | switch fluorescence ratio
GGCACATAAG | 1.012 ± 0.0033
AGGTTTTTTT | 0.993 ± 0.017
AGTACGATAT | 1.14 ± 0.025
TTTACTAGTT | 1.03 ± 0.037
GCTCTCCTGT | 1.02 ± 0.023
GATAGGGGGG | 1 ± 0.03
AACTCTGGTT | 0.968 ± 0.048
ATGAGGTCGT | 1.008 ± 0.007
TGCCGGGCTT | 1.01 ± 0.042
CGAGTTCCTT | 1.02 ± 0.014
TCGGTCTTTT | 0.974 ± 0.029
CTTGATATTT | 0.993 ± 0.015
GTAATGGTTT | 1.07 ± 0.17
TCCTGGCAAA | 1.59 ± 0.6
TTTTTGGCAC | 0.982 ± 0.029
TTGGTCGGG | 0.98 ± 0.044
TGTGTCAGAC | 1.01 ± 0.03
ATGATGAAGA | 1.02 ± 0.019
CGGTTAAGAT | 0.993 ± 0.012
TTTTTTAGTG | 0.981 ± 0.026
GCCAAATTAG | 0.956 ± 0.011
TTTCATTTGG | 1.01 ± 0.03
GATTGGGCCA | 0.996 ± 0.017
GTTTCGCAGG | 1.01 ± 0.015
GGGAGTAAAT | 1.01 ± 0.037

Sequence | switch fluorescence ratio
GCGCTCAGGT | 1.09 ± 0.13
GACTTGTTGG | 0.974 ± 0.042
CAGTCCCCTT | 1.33 ± 0.44
GAGCTTAGGA | 0.988 ± 0.013
TTTGGCTGTA | 0.97 ± 0.012
GTAGCCTGGT | 0.989 ± 0.041
CGTAAACTAG | 0.97 ± 0.016
TCATCAGGGC | 1.08 ± 0.034
TGTGAACAGT | 0.975 ± 0.044
GAATGGAGTA | 1.04 ± 0.039
TTCGGGGGAC | 1.13 ± 0.14
CGATTGCAG | 1.0118 ± 0.00044
TAGTTCGACT | 1.004 ± 0.0091
GGCCGATATG | 0.996 ± 0.015
CCGGAGGGGA | 1.27 ± 0.18
TTGTCCCGTG | 1.01 ± 0.026
TATGATTGGC | 0.972 ± 0.061
AGTGGTCG | 1.04 ± 0.033
CCTCGATTCA | 1.03 ± 0.017
ATTTTTGTTG | 0.9883 ± 0.008
ATTAAGCATG | 1.004 ± 0.0088
CACTTTGTTT | 1.01 ± 0.066
TCCGCGGGTG | 1.61 ± 0.82
ATGTTATATG | 1.004 ± 0.0036
GGACTAGATG | 0.978 ± 0.013

Sequence | switch fluorescence ratio
GCCCGCAAGG | 1.42 ± 0.015
TTGCTCGCCG | 1.08 ± 0.035
CTGGGGGGCG | 0.984 ± 0.066
GGGGTGGAGC | 1.05 ± 0.014
ATCGGGTCGA | 1 ± 0.023
AGTGTGTGGG | 1.02 ± 0.03
CTCTATGTTA | 1.02 ± 0.076
ATAATGTATC | 1.03 ± 0.018
AGGTTAGTGT | 0.9584 ± 0.001
TAGGTCCTTT | 1.02 ± 0.02
ATTGAGGAGA | 0.999 ± 0.033
ATGGTGGATG | 0.9626 ± 0.0052
TAGAAATTAA | 0.977 ± 0.019
TTCTGTTTTG | 1.01 ± 0.029
AAAAAAAATT | 0.993 ± 0.044
TGGGTTGGAG | 0.9949 ± 0.0067
CCGTTGGGGC | 1.12 ± 0.059
CAGTTGCGCA | 0.996 ± 0.034
TTGACTTATT | 1 ± 0.043
GCTTGTCGGT | 1.022 ± 0.0096
GTGGTGGGTG | 1 ± 0.091
AGTCTTTTTT | 1 ± 0.0038
TGATTTGGGT | 1.01 ± 0.021
GGTCTACTTT | 0.998 ± 0.021
AGAGTTAAAG | 0.9917 ± 0.0072

Sequence | switch fluorescence ratio
CGGTAATTGG | 1.01 ± 0.02
TGAGTCTTCG | 1.03 ± 0.017
TTATCATAGG | 1.01 ± 0.012
ATATGGGGGA | 0.99 ± 0.038
TATGTCAGAG | 1.01 ± 0.039
TGGTGATGCA | 1.08 ± 0.11
TTTAAGCGCT | 0.979 ± 0.029
GGAATATAAC | 1 ± 0.045
GGCAGTACGT | 1.27 ± 0.066
TGTTTTTTTG | 0.983 ± 0.041
CTTAAGGGAT | 1.0149 ± 0.00017
TACGCTCTCA | 1.21 ± 0.23
CTTTTGGGGT | 0.991 ± 0.01
GGAAGTAGGT | 0.988 ± 0.02
AGCACGGTTA | 1.04 ± 0.049
TATGCCTTTT | 1.008 ± 0.0042
TGGAGCCAGG | 1.08 ± 0.064
GACGGCAATG | 1.05 ± 0.032
TCGCTGAATA | 1.04 ± 0.052
ATTAGAAAGC | 0.981 ± 0.039
AGATTAGTTC | 1.002 ± 0.0056
ATCAGGGGGC | 1.03 ± 0.036
TGCATTGCTG | 1.01 ± 0.038
AACTCGGTCG | 1.04 ± 0.051
GGGGAGTGG | 1.01 ± 0.025

Sequence | switch fluorescence ratio
GGCACATGGG | 1.01 ± 0.028
TTCCCGGCTG | 1.03 ± 0.016
CGAGGGGAAG | 0.992 ± 0.022
TTTTGGATTG | 0.986 ± 0.026
CATGCAGATA | 1.006 ± 0.0094
ATAGTTGAGG | 0.981 ± 0.02
TACAGGCTGA | 0.9858 ± 0.0046
GGGGCTCATG | 0.99 ± 0.014
TTCAGGGGTG | 1.1 ± 0.033
GAGGGACGCT | 1.02 ± 0.033
GTTATTTTGA | 1.01 ± 0.017
TGGGGCTCAG | 0.986 ± 0.027
CTGAGGGGGT | 0.991 ± 0.066
TGAAGGGGAT | 1.02 ± 0.045
GGACAGGCGC | 1.006 ± 0.0024
CCGGTACTAT | 1.167 ± 0.0092
GGGGAGGCTG | 0.971 ± 0.039
TAGGATATGG | 1 ± 0.017
CCTGATCGAT | 1.01 ± 0.02
TTTGCCAGGA | 0.997 ± 0.0063
AGCGAAGGGG | 1.01 ± 0.047
CACAAGGGCA | 1.028 ± 0.0061
AATACGAATA | 1.92 ± 1.2
GCACTCGGTG | 1.01 ± 0.048
TTTGGTAGAG | 0.98 ± 0.018

Sequence | switch fluorescence ratio
ATCGAAAGTT | 0.99 ± 0.013
GTTTTGTAAG | 1 ± 0.023
AAGTTGATGC | 1.011 ± 0.0027
GAGGAAGTTA | 1.06 ± 0.097
TCGCATGTCT | 1.11 ± 0.098
AGAATGTGC | 0.9956 ± 0.0047
TTGGACTAGT | 1.018 ± 0.0023
AAAAAGGGAG | 1.01 ± 0.044
GGGTCGTAGC | 1.01 ± 0.037
TCGGACTATA | 1.06 ± 0.033
ATACGAAGGA | 1 ± 0.028
GGGCGTAACT | 0.991 ± 0.041
TTGCTGGGTG | 1.1 ± 0.056
GGGGGATGTG | 1.012 ± 0.004
AAGATAACCT | 1.87 ± 0.23
GAGTTCTAGG | 0.991 ± 0.038
TTGACCCGGT | 1.06 ± 0.085
GTGGTCCGGG | 0.979 ± 0.037
CAGGGGTTAG | 0.9927 ± 0.0026
CTTAAAGTTT | 0.983 ± 0.041
TTCTCGTGGC | 0.96 ± 0.029
TATTAAAATT | 1.008 ± 0.0077
GCTCATTGGC | 0.992 ± 0.027
TCCGGTTAGT | 1.04 ± 0.015
CGGTTTTCAT | 0.984 ± 0.019

Sequence | switch fluorescence ratio
TGGCGAAGAG | 0.999 ± 0.011
ACCACGGGAA | 1.05 ± 0.032
CGGTATCTAT | 0.96436 ± 0.00057
ATTGGGGGTC | 0.995 ± 0.05
TAGAGCGTAT | 1 ± 0.033
AAGTTGCTGT | 1.02 ± 0.063
TTTGGCCAGC | 0.975 ± 0.051
GGGTCAGGAT | 0.968 ± 0.019
AAAAAAAAAT | 1.04 ± 0.03
CGCGCTGACT | 1.05 ± 0.017
GGGATGTTTG | 0.987 ± 0.017
TACAGCACTG | 1.29 ± 0.15
ATTATAGGG | 1 ± 0.015
TTTGGTTTAC | 1.01 ± 0.019
TAAAAGCTGG | 1.02 ± 0.078
TTTAGAATAT | 0.9885 ± 0.0018
ACTTTTTGTG | 1 ± 0.013
CAGGGCAAGC | 1.36 ± 0.057
ACGTACGGGT | 1.46 ± 0.12
GGAGATGTCA | 1.013 ± 0.0081
GGATTTTTAG | 0.99134 ± 0.00052
ATTTGACGGT | 1.07 ± 0.11
TTTTCAAGGG | 0.967 ± 0.015
TGGTGTGTCA | 1.005 ± 0.0092
TTGGGGTCCA | 0.977 ± 0.015

Sequence | switch fluorescence ratio
TCGTTGAGGC | 1.037 ± 0.0072
TGACAAGGGG | 1.05 ± 0.044
GTAAGGAAGG | 0.989 ± 0.012
ATGGGCTATT | 0.994 ± 0.038
AATATTGTGG | 0.974 ± 0.019
GGGATTTTAA | 0.9753 ± 0.0091
GGGGAGAGCG | 1.01 ± 0.034
ATTCACTCTA | 1.08 ± 0.026
AGGTATGTTT | 1 ± 0.068
GGTTTAAATA | 1.003 ± 0.0092
CCATGGTTAC | 2.67 ± 2.3
AGTTCGGGGT | 1.02 ± 0.024
CAATGAGCTT | 0.9907 ± 0.0087
GTTGGTATGA | 0.989 ± 0.017
TATTTAACAC | 1.1 ± 0.12
TGGGTAGGTC | 1.014 ± 0.0014
CATGTGATTT | 0.992 ± 0.023
CGTAAAGGAG | 0.992 ± 0.052
ACCGCATAGT | 2.57 ± 0.099
CGTGTTGGCT | 1.072 ± 0.0032
GACTGGTATG | 0.972 ± 0.011
AGTGGAGGGG | 0.969 ± 0.029
GGGGTTTAAG | 0.969 ± 0.025
CGGCTTATAT | 1.06 ± 0.041
CGCTGGGGGT | 1.16 ± 0.2
